Test system: cellular survival
Assay: Effect of expression of HIP1 dominant negative mutant on cellular survival
Format: cell-based
Settings: for induction of cell death: expression of construct
From the text: The effect of expression of a HIP1 dominant negative mutant on cellular survival was next investigated. […] 39% of HIP1/DE-expressing cells and 50% of caspase 9-expressing cells were apoptotic. […] Expression of the endogenous HIP1, wild type HIP1, HIP1/DE and Caspase 9 was documented by Western blot analysis as shown in the bottom of FIG. 6b.

Molecule	correction of HIP1 deltaE apoptosis (co-expression with HIP1 deltaE, FIG. 12 and 13)	induction of cell death (FIG. 6b)	apoptotic cells (cells expressing the construct, FIG. 6b)
FLHIP1: wild type full length HIP1 expressed in cells (protein, X: residue not identified in the source, wild type full length HIP1 expressed in cells) MDRMASSMKQVPNPLPKVLSRRGVGAGLEAAERESFERTQTVSINKAINTQEVAVKEKHARTCILGTHHEKGAQTFWSVVNRLPLSSNAVLCWKFCHVFHKLLRDGHPNVLKDSLRYRNELSDMSRMWGYLSEGYGQLCSIYLKLLRTKMEYHTKNPRFPGNLQMSDRQLDEAGESDVNNFSQLTVEMFDYLECELNLFQTVFNSLDMSRSVSVTAAGQCRLAPLIQVILDCSHLYDYTVKLLFKLHSCLPADTLQGHRDRFMEQFTKLKDLFYRSSNLQYFKRLIQIPQLPENPPNFLRASALSEHISPVVVIPAEASSPDSEPVLEKDDLMDMDASQQNLFDNKFDDIFGSSFSSDPFNFNSQNGVNKDEKDHLIERLYREISGLKAQLENMKTESQRVVLQLKGHVSELEADLAEQQHLRQQAADDCEFLRAELDELRRQREDTEKAQRSLSEIERKAQANEQRYSKLKEKYSELVQNHADLLRKNAEVTKQVSMARQAQVDLEREKKELEDSLERISDQGQRKTQEQLEVLESLKQELATSQRELQVLQGSLETSAQSEANWAAEFAELEKERDSLVSGAAHREEELSALRKELQDTQLKLASTEESMCQLAKDQRKMLLVGSRKAAEQVIQDALNQLEEPPLISCAGSADHLLSTVTSISSCIEQLEKSWSQYLACPEDISGLLHSITLLAHLTSDAIAHGATTCLRAPPEPADSLTEACKQYGRETLAYLASLEEEGSLENADSTAMRNCLSKIKAIGEELLPRGLDIKQEELGDLVDKEMAATSAAIETATARIEEMLSKSRAGDTGVKLEVNERILGCCTSLMQAIQVLIVASKDLQREIVESGRGTASPKEFYAKNSRWTEGLISASKAVGWGATVMVDAADLVVQGRGKFEELMVCSHEIAASTAQLVAASKVKADKDSPNLAQLQQASRGVNQATAGVVASTISGKSQIEETDNMDFSSMTLTQIKRQEMDSQVRVLELENELQKERQKLGELRKKHYELAGVAEGWEEGTEASPPTLQEVVTEKESQTNTPYVSVNPCYLSRVCYFPSHRPNPWSPRGSHTTAITQCRGHAHFQRLPPRHPFCLDPWISTASYGGWLGFLVLFFFFKFHSHSQLSQRAHPWGVSRAPQLWLQRWCCPGLSVLHLRLHTDQVLAHPVHAPGSGGAAEQLSSKSRRRVSAFPSSIPAESLCPPLQGRRQQKEGQEGSHSPVPVTRLKNLITCLNGAGEINNTTSLPETVREWSLSSGPSPLAQRRSVGVIPNSFLQTSALASSIGRSFHLLRNQTRKIRCNCSHQGRTLYLVCYPYLLLTSLKQQQPTKRCLEQSELQVLQSSSFCPATSAFKNQKKGQGAGLLLTWIPKQGDHLELLGQRKERTEPAAPTPFSHMPQALAALWTGGQRAHEQLARDGQPNSTFPLLDGPQHLSDLLILGKQRLPSLSIATHWWPSSTSEFLQPGRPLEHAXEGP	correction of HIP1 deltaE apoptosis	did not induce cell death	–
HIP1/deltaE: dominant negative mutant of HIP1 lacking the ENTH domain (SEQ ID NO: 4) (protein, listed as Homo sapiens) MFDYLECELNLFQTVFNSLDMSRSVSVTAAGQCRLAPLIQVILDCSHLYDYTVKLLFKLHSCLPADTLQGHRDRFMEQFTKLKDLFYRSSNLQYFKRLIQIPQLPENPPNFLRASALSEHISPVVVIPAEASSPDSEPVLEKDDLMDMDASQQNLFDNKFDDIFGSSFSSDPFNFNSQNGVNKDEKDHLIERLYREISGLKAQLENMKTESQRVVLQLKGHVSELEADLAEQQHLRQQAADDCEFLRAELDELRRQREDTEKAQRSLSEIERKAQANEQRYSKLKEKYSELVQNHADLLRKNAEVTKQVSMARQAQVDLEREKKELEDSLERISDQGQRKTQEQLEVLESLKQELATSQRELQVLQGSLETSAQSEANWAAEFAELEKERDSLVSGAAHREEELSALRKELQDTQLKLASTEESMCQLAKDQRKMLLVGSRKAAEQVIQDALNQLEEPPLISCAGSADHLLSTVTSISSCIEQLEKSWSQYLACPEDISGLLHSITLLAHLTSDAIAHGATTCLRAPPEPADSLTEACKQYGRETLAYLASLEEEGSLENADSTAMRNCLSKIKAIGEELLPRGLDIKQEELGDLVDKEMAATSAAIETATARIEEMLSKSRAGDTGVKLEVNERILGCCTSLMQAIQVLIVASKDLQREIVESGRGTASPKEFYAKNSRWTEGLISASKAVGWGATVMVDAADLVVQGRGKFEELMVCSHEIAASTAQLVAASKVKADKDSPNLAQLQQASRGVNQATAGVVASTISGKSQIEETDNMDFSSMTLTQIKRQEMDSQVRVLELENELQKERQKLGELRKKHYELAGVAEGWEEGTEASPPTLQEVVTEKESQTNTPYVSVNPCYLSRVCYFPSHRPNPWSPRGSHTTAITQCRGHAHFQRLPPRHPFCLDPWISTASYGGWLGFLVLFFFFKFHSHSQLSQRAHPWGVSRAPQLWLQRWCCPGLSVLHLRLHTDQVLAHPVHAPGSGGAAEQLSSKSRRRVSAFPSSIPAESLCPPLQGRRQQKEGQEGSHSPVPVTRLKNLITCLNGAGEINNTTSLPETVREWSLSSGPSPLAQRRSVGVIPNSFLQTSALASSIGRSFHLLRNQTRKIRCNCSHQGRTLYLVCYPYLLLTSLKQQQPTKRCLEQSELQVLQSSSFCPATSAFKNQKKGQGAGLLLTWIPKQGDHLELLGQRKERTEPAAPTPFSHMPQALAALWTGGQRAHEQLARDGQPNSTFPLLDGPQHLSDLLILGKQRLPSLSIATHWWPSSTSEFLQPGRPLEH	–	promoted cell death	39%

From US7790384B2, “HIP1 cancer markers” (The Regents of the University of Michigan, priority 2001, dated 2010)
